Reference: publication PMC4699388

Legend:
[1] = target: GATA-1^S310A (human) (UniProt P15976); assay: co-IP
[2] = target: GATA-1^S310A (human) (UniProt P15976)

Sequence of UniProt P15976 (P15976 whole entry S310A): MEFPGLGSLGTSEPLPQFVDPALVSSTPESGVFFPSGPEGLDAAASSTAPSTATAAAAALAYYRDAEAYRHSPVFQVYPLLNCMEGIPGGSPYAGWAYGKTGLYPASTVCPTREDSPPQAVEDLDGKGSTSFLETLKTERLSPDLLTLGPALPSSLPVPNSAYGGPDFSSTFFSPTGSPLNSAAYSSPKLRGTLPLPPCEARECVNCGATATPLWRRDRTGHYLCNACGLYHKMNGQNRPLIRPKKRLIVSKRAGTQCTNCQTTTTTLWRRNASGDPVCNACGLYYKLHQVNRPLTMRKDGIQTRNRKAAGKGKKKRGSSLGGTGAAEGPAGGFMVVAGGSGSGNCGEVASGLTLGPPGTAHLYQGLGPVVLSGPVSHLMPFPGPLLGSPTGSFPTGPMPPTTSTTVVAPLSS

## FOG-1 (mouse), in NIH-3T3 cells (from UniProt O35615 1-995) (natural protein)
[1]
  rate of binding to FOG-1: 62
[2]
  relative affinity against wild-type GATA-1 (fold less): 25 fold
